Laboratory results as given in paper PMC4189786.

Target: serum albumin (HSA in Results and figures; Methods state purchased bovine serum albumin, Sigma A7030) ((Methods: bovine)) (UniProt P02769)
Test: tryptophan fluorescence quenching
Settings: 6 uM albumin, off-target, 6 uM albumin in phosphate buffer (10 mM) pH 7.4, 37 C, excitation 290 nm, emission 300-400 nm, 90 s after each aptamer addition

serum albumin (HSA in Results and figures; Methods state purchased bovine serum albumin, Sigma A7030) ((Methods: bovine)), sequence (P02769 25-607): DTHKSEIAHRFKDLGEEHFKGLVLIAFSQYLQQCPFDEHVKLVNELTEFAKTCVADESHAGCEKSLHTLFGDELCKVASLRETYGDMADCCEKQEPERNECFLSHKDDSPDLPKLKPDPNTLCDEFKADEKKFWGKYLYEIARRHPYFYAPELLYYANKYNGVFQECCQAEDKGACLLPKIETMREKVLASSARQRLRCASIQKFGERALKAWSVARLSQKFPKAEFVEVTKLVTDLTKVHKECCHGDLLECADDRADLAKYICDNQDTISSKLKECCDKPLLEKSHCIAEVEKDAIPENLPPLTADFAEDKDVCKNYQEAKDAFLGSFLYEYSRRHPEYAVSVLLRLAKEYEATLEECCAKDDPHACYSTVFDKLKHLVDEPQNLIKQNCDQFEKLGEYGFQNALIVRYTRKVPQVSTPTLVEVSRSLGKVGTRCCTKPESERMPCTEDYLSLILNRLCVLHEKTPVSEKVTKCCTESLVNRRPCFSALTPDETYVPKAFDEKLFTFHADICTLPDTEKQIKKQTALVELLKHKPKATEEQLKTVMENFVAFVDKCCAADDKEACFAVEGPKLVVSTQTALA

GGGAGACAAGAATAAACGCTCAAATGGACTTTTGAATGTGGCAACAAATTCGACAGGAGGCTCACAACAGGC [1.5 M Long]
binding signal (aptamer:HSA 1:10): 16 % quenching | binding signal (aptamer:HSA 1:100): 2.4 % quenching

ACTTTTGAATGTGGCAACAAATTCGACAGG [1.5 M Short]
binding signal (aptamer:HSA 1:10): 9 % quenching | binding signal (aptamer:HSA 1:100): 1.5 % quenching
